Test results taken from article PMC3492748.

Tests used:
[1] = target: geminin (Xenopus laevis (endogenous in eggs and embryos)) (UniProt O93352); assay: co-IP
[2] = target: Cdt1 (Xenopus laevis (endogenous in eggs and embryos)) (UniProt Q9I9A7); assay: co-IP

Substance	decline of co-precipitation over 20 minutes after fertilisation [1] [%]	decline of co-precipitation over 20 minutes after fertilisation [2] [%]
Cdt1 (from UniProt Q9I9A7 1-617) (natural protein)	> 50	–
geminin (from UniProt O93352 1-219) (natural protein)	–	> 50
